Data from the nanobody polyreactivity screen of Harvey et al. (2022).

Experiment: yeast display, Sf9 membrane polyspecificity reagent, FACS + sequencing; frameworks hold sequencing errors
Procedure, shortened: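 A nanobody's polyreactivity label depends on the gate it was sorted from. Yeast display cells were stained with 10% biotinylated, detergent-solubilized Sf9 membrane reagent for 1 hour at 4 °C, enriched on streptavidin microbeads and sorted by FACS. The low and high (top ~1%) gates were set on anti-HA fluorescence for expression and streptavidin fluorescence for reagent binding.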

| Sequence | polyreactivity (PSR sort gate) |
| --- | --- |
| QVQRVESGGGLVQAGGSLRLSCAASGSIFYGNAMGWYRQAPGKERELVAAISWSGGSTYYADSVKGRFTISRDNAKNTVYLQMNSLKPEDTAVYYCATVADEPRAYSGYEESDYWGQGTQVTVSS | low polyreactivity |
| QVQRVESGGGLVQAGGSLRLSCAASGSIFYVYVMGWYRLAPGKERELVAGISYRGGSTYYADSVKGRFTISRDNAKNTVYLQMNSLKPEDTAVYYCNAGVWTYWHIEMDYWGQGTQVTVSS | low polyreactivity |
| QVQRVESGGGLVQAGGSLRLSCAASGSTFKKYVMGWYRPAPGKERELVAAISGRGGSTYYADSVKGRFTISRDNAKNTVYLQMNSLKPEDTAVYYCNARKQTARFDSWGQGTQVTVSS | high polyreactivity |
| QVQRVESGGGLVQAGGSLRLSCAASGSTFSSYAMGWYRQAPWKERELVAAISRSGGSTHYADSLKGRFTISRDNAKNTVYLQMNSLKPEDSAVYYCAADTGRYLDSNYWGQGTQVTVSS | high polyreactivity |
| QVQRVESGGGLVQAGGSLRLSCAASGSTFVGYAMGWYRQAPGKERELVAAINDSGGSTYYADSVKGRFTISRDNAKNTVYLQMNSLKPEDTAVYYCAADSSGTSWYTFDYWGQRTQVTVSS | low polyreactivity |
| QVQRVESGGGLVQAGGSLRLSCAASGYTFQWYDMGWYRQAPGKERELVASISWRGGSTYYADSVKGRFTISRDNAKNTVYFQMNSLKPEDTAVYYCAASLLPDYQYDYWGQGTQVTVSS | low polyreactivity |
| QVQRVESGGGLVQAGGSLRLSCAASRRIFKLYAMGWYIQAPGKERELVAAINRRGGSTSYADSVKVRFTISRDYAKNTVYLQMNSLKPEDTAVYYCAASYTGRTVVQGYEYWGQGTQVTVSS | high polyreactivity |
| QVQRVESGGGLVQAGGSLRLSGAASGFTFHSYAMGWFRQPPGKERELVAAISTGGTRTYYADSVKGRFTISRDNAKNTVYLQMNSLKPEDTAVYYCAADLSRRVRIYSKYDSWGQGTQVTVSS | high polyreactivity |
| QVQRVESGGGLVQAGGSLRLSSAGSGFTYYRNAMGWYRQAPGKERELVAAISFSGGSTYYADSVKGRFTISRDNAKNTVYLQMNSLKPEDTAVYYCAREDYSHSFLTYDYWGQGTQLTVSS | low polyreactivity |
| QVQRVESGGGLVQAGGSLRVSCAASGSTFYVYGMGWYRQAPGKERELVAAISWSGGDTYYADSVKGRCTISRDNAKNTVYLQMNRLKPEDTAVYYCAAVYNYPVVGEYDYWGQGTQVTVSA | high polyreactivity |
| QVQRVESGGGLVQAGRSLRLSCAASGTIFGPYAMGWYRQAPGKERELVAAITIGRDNTYYADSVKGRFTISRDNAKNTVYLQINSLKPEDTAVYYCAAKYYGGKPHYYEYYYWGQGTQVTVSS | low polyreactivity |
| QVQRVESGGGLVQAGRSLRLSCAATGITFWVYAMGWYRQAPGKERELVAAISRRGGSTSYADSVKGRFTISRDNAKNTVYLQMNSLKPEDTAVYYCAATTYTHPYGYWGQGTQVTVSS | high polyreactivity |
| QVQRVESGGGLVQEGGSLRLSCAASGITFAGYAMGWYRQAHGKERELVAAISTRGGSTTYADSVKGRFTISLDNAKNTVYLQMNRLKPEDTAVYYCAADSYYRRYFGWYEYWGQGTQVTVSS | high polyreactivity |
| QVQRVESGGGLVQSGGSLRLSCAASGRIFYLYARGWNSQAPGKERELVAAITWSGGSTTYADSVKGRFTISRDNAKNTVYLQMNSLKPEDTAVYYCNADGWSFPSFSPMDYWGQGTQVTVSS | low polyreactivity |
| QVQRVESGGRLVQAGGSLRLSCAPSGFTFQDYAMGWSRQAPGKERELVAAISRNGGSTYYADSVKGRFTISRDNAKNTVYLQMNSLKPEDTAVYYCNADSHHRRGSRDYCGQGTQVTVSS | low polyreactivity |
| QVQRVESGGVLVQAGGSLRLSCAASGITFYVYAMGWYRQAPGKERELVASITRSVGITSYADSVKGRFTISRDNSKNTVYLQMNSLKQEDSAVYYCAAERSNLHYNIQGVGYWGQGTQVTVSS | low polyreactivity |
| QVQRVESRGGLVQAGGSLRLSCAASGSTFHRYVKGWSRTATGKERELVSVINSTGASTYYADSVKWRYTLSRDNAKNSVYLQMNSLKPEDTAVYYCARVTRRGPGYTTLYSRYDYWGQGTQVTVSS | low polyreactivity |
